Assay results as given in patent publication US20170137467A1 (CHROMOTEK, published 2017).
Positions count from the first letter of the chain named. Square brackets hold non-standard residues; d marks the D form. GABA = NCCCC(=O)O

B1: BC2 nanobody (BC2-Nb) (VHH)
VHH: QVQLVESGGGLVQPGGSLTLSCTASGFTLDHYDIGWFRQAPGKEREGVSCINNSDDDTYYADSVKGRFTIFMDNAKDTVYLQMNSLKPEDTAIYYCAEARGCKRGRYEYDFWGQGTQVTVSS
notes: immobilised on agarose/sepharose beads in this assay; also called BC2 nanotrap (immobilised form); not shown: C-terminal 6xHis-tag added by pHEN6 vector
B2: BC2-NbR106E (VHH)
VHH: B1 VHH with R106E
notes: headlock mutant of BC2-Nb; immobilised on beads in this assay
B3: BC2-NbR106S (VHH)
VHH: B1 VHH with R106S
notes: immobilised on beads in this assay; not shown: C-terminal 6xHis-tag added by pHEN6 vector

Key:
BC2T A6S = molecular target: T1, BC2T A6S (human); experiment: library pulldown, LC-MS of supernatant; ratio vs GFP-Nb control (0=captured, 1=not captured)
T1 construct: position 6 library (BC2TA6X), row S
T1 peptide: Ac-PDRKASVSHWQQ-NH2
How it was run: (§1)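 Unbound peptide left in supernatant after 1 h pulldown in PBS/0.01% CHAPS measured by reversed-phase LC-MS (8–30% eluent B gradient, 20 min).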

BC2T A6T = molecular target: T2, BC2T A6T (human); experiment: as above
T2 construct: position 6 library (BC2TA6X), row T
T2 peptide: Ac-PDRKATVSHWQQ-NH2
How it was run: as §1

BC2T A6C(Abu) = molecular target: T3, BC2T A6C(Abu) (human, SMILES …); experiment: as above
T3 construct: position 6 library (BC2TA6X), row C(Abu) / C*
T3 peptide: Ac-PDRKA[GABA]VSHWQQ-NH2
How it was run: as §1

BC2T V7P = molecular target: T4, BC2T V7P (human); experiment: as above
T4 construct: position 7 library, row P
T4 peptide: Ac-PDRKAAPSHWQQ-NH2
How it was run: as §1

BC2T V7W = molecular target: T5, BC2T V7W (human); experiment: as above
T5 construct: position 7 library, row W
T5 peptide: Ac-PDRKAAWSHWQQ-NH2
How it was run: as §1

BC2T V7N = molecular target: T6, BC2T V7N (human); experiment: as above
T6 construct: position 7 library, row N
T6 peptide: Ac-PDRKAANSHWQQ-NH2
How it was run: as §1

BC2T P1S = molecular target: T7, BC2T P1S (human); experiment: as above
T7 construct: position 1 library, row S
T7 peptide: Ac-SDRKAAVSHWQQ-NH2
How it was run: as §1

BC2T V7H = molecular target: T8, BC2T V7H (human); experiment: as above
T8 construct: position 7 library, row H
T8 peptide: Ac-PDRKAAHSHWQQ-NH2
How it was run: as §1

BC2T V7E = molecular target: T9, BC2T V7E (human); experiment: as above
T9 construct: position 7 library, row E
T9 peptide: Ac-PDRKAAESHWQQ-NH2
How it was run: as §1

BC2T P1H = molecular target: T10, BC2T P1H (human); experiment: as above
T10 construct: position 1 library, row H
T10 peptide: Ac-HDRKAAVSHWQQ-NH2
How it was run: as §1

BC2T D2C(Abu) = molecular target: T11, BC2T D2C(Abu) (human, SMILES …); experiment: as above
T11 construct: position 2 library, row C(Abu) / C*
T11 peptide: Ac-P[GABA]RKAAVSHWQQ-NH2
How it was run: as §1

BC2T R3F [1] = molecular target: T12, BC2T R3F (human); experiment: as above
T12 construct: position 3 library (BC2TR3X), row F
T12 peptide: Ac-PDFKAAVSHWQQ-NH2
How it was run: as §1

BC2T R3N = molecular target: T13, BC2T R3N (human); experiment: as above
T13 construct: position 3 library (BC2TR3X), row N
T13 peptide: Ac-PDNKAAVSHWQQ-NH2
How it was run: as §1

BC2T R3H = molecular target: T14, BC2T R3H (human); experiment: as above
T14 construct: position 3 library (BC2TR3X), row H
T14 peptide: Ac-PDHKAAVSHWQQ-NH2
How it was run: as §1

BC2T K4P = molecular target: T15, BC2T K4P (human); experiment: as above
T15 construct: position 4 library, row P
T15 peptide: Ac-PDRPAAVSHWQQ-NH2
How it was run: as §1

BC2T K4N = molecular target: T16, BC2T K4N (human); experiment: as above
T16 construct: position 4 library, row N
T16 peptide: Ac-PDRNAAVSHWQQ-NH2
How it was run: as §1

BC2T K4Y = molecular target: T17, BC2T K4Y (human); experiment: as above
T17 construct: position 4 library, row Y
T17 peptide: Ac-PDRYAAVSHWQQ-NH2
How it was run: as §1

BC2T A5S = molecular target: T18, BC2T A5S (human); experiment: as above
T18 construct: position 5 library, row S
T18 peptide: Ac-PDRKSAVSHWQQ-NH2
How it was run: as §1

BC2T A5C(Abu) = molecular target: T19, BC2T A5C(Abu) (human, SMILES …); experiment: as above
T19 construct: position 5 library, row C(Abu) / C*
T19 peptide: Ac-PDRK[GABA]AVSHWQQ-NH2
How it was run: as §1

BC2T R3F [2] = molecular target: T20, BC2T R3F; experiment: positional peptide library pulldown on immobilised Nb, LC-MS of supernatant; signal ratio to control GFP-Nb (1 = not captured, near 0 = captured)
T20 construct: positional scanning library member
T20 peptide: Ac-PDFKAAVSHWQQ-NH2
How it was run: as §1

BC2T R3K = molecular target: T21, BC2T R3K; experiment: as above
T21 construct: positional scanning library member
T21 peptide: Ac-PDKKAAVSHWQQ-NH2
How it was run: as §1

BC2T A5D = molecular target: T22, BC2T A5D; experiment: as above
T22 construct: positional scanning library member
T22 peptide: Ac-PDRKDAVSHWQQ-NH2
How it was run: as §1

Row | Binder | ratio (BC2T A6S) | ratio (BC2T A6T) | ratio (BC2T A6C(Abu)) | ratio (BC2T V7P) | ratio (BC2T V7W) | ratio (BC2T V7N) | ratio (BC2T P1S) | ratio (BC2T V7H) | ratio (BC2T V7E) | ratio (BC2T P1H) | ratio (BC2T D2C(Abu)) | ratio (BC2T R3F [1]) | ratio (BC2T R3N) | ratio (BC2T R3H) | ratio (BC2T K4P) | ratio (BC2T K4N) | ratio (BC2T K4Y) | ratio (BC2T A5S) | ratio (BC2T A5C(Abu)) | further results
1 | B1 | 0.5 | 0.2 | 0.1 | 1 | 0.1 | 0.2 | 0.3 | 0.3 | 0.4 | 0.3 | 0.1 | 0.8 | 0.7 | 0.3 | 1 | 0.5 | 0.2 | 0.1 | 0.1 | –
2 | B2 | – | – | – | – | – | – | – | – | – | – | – | – | – | – | – | – | – | – | – | ratio (BC2T R3F [2]): 1; ratio (BC2T R3K): 0.3; ratio (BC2T A5D): 0.9
3 | B3 | 0.8 | 0.4 | 0.3 | 1 | 0.3 | 0.4 | 0.6 | 0.4 | 0.8 | 0.6 | 0.3 | 1 | 1 | 0.7 | 1 | 0.9 | 0.5 | 0.4 | 0.3 | –
